# “And” between values parts separate entries of the source, which are not always exact repeats. Equal entries are not always repeated.
# Tested on: Saccharomyces cerevisiae
# Experiment: protein stability index of tFT-peptide fusion in wild type (PSI (0-1 scale)); higher = more stable (slower turnover)
# Details: genetic background: wild type
# Method: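 MPS profiling in S. cerevisiae of two library types built from selected 12-aa C-degron peptides (IN1, IN2, LN1, LN3, VN2, R1-R5, W1-W3, Atg1 and Rpa12 C-termini): saturation mutagenesis libraries and C-terminal +1 capping libraries (13 aa). Each peptide is fused to the C-terminus of a sfGFP-mCherry timer, after a GGGS linker. Cells are FACS-sorted into 8 mCherry/sfGFP bins and sequenced. PSI runs from 0 (unstable) to 1 (stable), measured once in wild type and in the das1Δ or doa10Δ background.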
# 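Note: PSI derived as read-weighted mean over the 8 sorting bins, only variants exceeding 10 total reads kept, mCherry placed adjacent to the peptide and sfGFP distal.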
row,Sequence,protein stability index
1,AIFLPMCPLLLR,0.278
2,AIHLPMCPLLLR,0.278
3,AITGPMCPLLLR,0.497
4,AITKPMCPLLLR,0.458
5,AITLGMCPLLLR,0.373
6,AITLNMCPLLLR,0.261
7,AITLPMCPLFLR,0.184
8,AITLPMCPLLER,0.648
9,AITLPMCPLLLH,0.502
10,AITLPMCPLLLN,0.135
11,AITLPMCPLLLRN,0.281
12,AITLPMCPYLLR,0.545
13,AITLPMCVLLLR,0.0936
14,AITLPMCWLLLR,0.0817
15,AITLPQCPLLLR,0.293
16,AITLPTCPLLLR,0.289
17,AITLPYCPLLLR,0.18
18,AITLQMCPLLLR,0.3
19,AITLWMCPLLLR,0.267
20,AITSPMCPLLLR,0.491
21,AIVLPMCPLLLR,0.229
22,ALYMCSVGCWFR,0.351

row,Sequence,protein stability index
1,ANTLPMCPLLLR,0.442
2,CEVSLPILLFFR,0.066
3,CLPSLPILLFFR,0.0469
4,KKHKKGQKQKIN,0.113 and 0.11
5,PDKRNQLIKLLN,0.0747
6,PDKRYHLIKLLN,0.0495
7,PDVRNHLIKLLN,0.119
8,PPKRNHLIKLLN,0.116
9,PSLAAAFWRVVG,0.142
10,PSLAADFWRVVG,0.171
11,PSLAAGFWRVVG,0.164
12,PSLAALFWRVVG,0.129
13,PSLAASCWRVVG,0.143
14,PSLAASFWRGVG,0.232
15,PSLAASFWRRVG,0.128
16,PSLAASFWRVDG,0.68
17,PSLAASFWRVNG,0.167
18,PSLAASFWRVVGF,0.692
19,PSLAASFWRVVGQ,0.649
20,PSLAASFWRVVGR,0.692
21,PSLAASFWRVVW,0.637
22,PSLAASGWRVVG,0.193

row,Sequence,protein stability index
1,PSLAASMWRVVG,0.147
2,PSLAASTWRVVG,0.132
3,PSLAGSFWRVVG,0.152
4,PSLAHSFWRVVG,0.167
5,PSLAISFWRVVG,0.127
6,PSMRWTFRYWVN,0.0877
7,QDKRNHLIKLLN,0.0816
8,QSLAASFWRVVG,0.13
9,RAIQPLPVQFLN,0.121
10,RIIQPLPVQFLN,0.0603
11,RLIEPLPVQFLN,0.076
12,RLIPPLPVQFLN,0.0667
13,RLIQPLLVQFLN,0.0592
14,RLIQPLPAQFLN,0.0736
15,RLIQPLPHQFLN,0.0684
16,RLIQPLPNQFLN,0.21
17,RLIQPLPPQFLN,0.132
18,RLIQPLPVAFLN,0.0928
19,RLIQPLPVQFLND,0.652
20,RLIQPLPVQFLNK,0.647
21,RLIQPLPVQFLNM,0.584
22,RLIQPLPVQFLR,0.668

row,Sequence,protein stability index
1,RLIQPLPVQFLS,0.156
2,RLIQPLPVQHLN,0.1
3,RLIQPLPWQFLN,0.0707
4,RLIQPRPVQFLN,0.0515
5,RLIQWLPVQFLN,0.071
6,RLIWPLPVQFLN,0.0399
7,RRGAVGGWRLVG,0.16
8,RTIQPLPVQFLN,0.101
9,SDKRNHLIKLLN,0.156
10,SRGAVGGWRLVG,0.171
11,SRWRVGLWRGAS,0.458
12,SSLAASFWRVVG,0.16
13,TSMRWTFRYWVN,0.0899
14,VRGAKGGWRLVG,0.28
15,VRGANGGWRLVG,0.212
16,VRGAQGGWRLVG,0.191
17,VRGAVAGWRLVG,0.156
18,VRGAVGGMRLVG,0.592
19,VRGAVGGWRCVG,0.222
20,VRGAVGGWRFVG,0.142
21,VRGAVGGWRHVG,0.137
22,VRGAVGGWRLFG,0.333

row,Sequence,protein stability index
1,VRGAVGGWRLTG,0.269
2,VRGAVGGWRLVGM,0.621
3,VRGAVGGWRLVGQ,0.701
4,VRGAVGGWRLVGS,0.174
5,VRGAVGGWRLVW,0.714
6,VRGAVGGWRNVG,0.364
7,VRGAVGGYRLVG,0.658
8,VRGAVGIWRLVG,0.156
9,VRGAVMGWRLVG,0.154
10,VRGAVPGWRLVG,0.149
11,VRGAVTGWRLVG,0.157
12,VRGHVGGWRLVG,0.131
13,VRWAVGGWRLVG,0.0824
14,VSLAASFWRVVG,0.102
15,VYGAVGGWRLVG,0.137
16,WTSCGYKFRTNN,0.173
17,YKILRQKMNHQN,0.196
18,YVVYLSCVACIN,0.0134

# From the supplement of paper PMC10724198
